Reference: patent US20240261333A1, “NOVEL TARGETS FOR ENHANCING ANTI-TUMOR IMMUNITY” (THE BROAD INSTITUTE, INC., priority 2021, published 2024)

Tests used:
RPS4X (human) = RPS4X (human) (UniProt P62701); assay: co-IP with control IgG, mass spectrometry; lysate of cells with C-FLAG B3GNT2
GANAB (human) = GANAB (human) (UniProt Q14697); assay: as above
MAGT1 (human) = MAGT1 (human) (UniProt Q9H0U3); assay: as above
ARF4 (human) = ARF4 (human) (UniProt P18085); assay: as above
SLC25A5 (human) = SLC25A5 (human) (UniProt P05141); assay: as above
IPO13 (human) = IPO13 (human) (UniProt O94829); assay: as above
NPM1 (human) = NPM1 (human) (UniProt P06748); assay: as above
SDF4 (human) = SDF4 (human) (UniProt Q9BRK5); assay: as above
PJA2 (human) = PJA2 (human) (UniProt O43164); assay: as above
TOR1AIP2 (human) = TOR1AIP2 (human) (UniProt Q8NFQ8); assay: as above
HADHA (human) = HADHA (human) (UniProt P40939); assay: as above
HSPD1 (human) = HSPD1 (human) (UniProt P10809); assay: as above
RPL32 (human) = RPL32 (human) (UniProt P62910); assay: as above
ZC3HAV1 (human) = ZC3HAV1 (human) (UniProt Q7Z2W4); assay: as above
CD70 (human) = CD70 (human) (UniProt P32970); assay: as above
SLC27A4 (human) = SLC27A4 (human) (UniProt Q6P1M0); assay: as above
MYO1C (human) = MYO1C (human) (UniProt O00159); assay: as above
EIF4A1 (human) = EIF4A1 (human) (UniProt P60842); assay: as above
RRP12 (human) = RRP12 (human) (UniProt Q5JTH9); assay: as above
ARHGEF2 (human) = ARHGEF2 (human) (UniProt Q92974); assay: as above
GALNT2 (human) = GALNT2 (human) (UniProt Q10471); assay: as above
SPRR1A (human) = SPRR1A (human) (UniProt P35321); assay: as above
CCT7 (human) = CCT7 (human) (UniProt Q99832); assay: as above
RPL9 (human) = RPL9 (human) (UniProt P32969); assay: as above
MARS (human) = MARS (human) (UniProt P56192); assay: as above
STAU2 (human) = STAU2 (human) (UniProt Q9NUL3); assay: as above
GAPDH (human) = GAPDH (human) (UniProt P04406); assay: as above
DNAJB11 (human) = DNAJB11 (human) (UniProt Q9UBS4); assay: as above
MSN (human) = MSN (human) (UniProt P26038); assay: as above
RPL26 (human) = RPL26 (human) (UniProt P61254); assay: as above
ITGB3 = ITGB3 (UniProt P05106); assay: co-IP, anti-FLAG, C-FLAG B3GNT2 cell lysate, mass spectrometry
RPS19 = RPS19 (UniProt P39019); assay: as above
MTCH2 = MTCH2 (UniProt Q9Y6C9); assay: as above
PSMA7 = PSMA7 (UniProt O14818); assay: as above
NCCRP1 = NCCRP1 (UniProt Q6ZVX7); assay: as above
HSPB1 = HSPB1 (UniProt P04792); assay: as above
HNRNPU = HNRNPU (UniProt Q00839); assay: as above
CASC3 (human) = CASC3 (human) (UniProt O15234); assay: co-IP with mouse anti-FLAG from lysate of cells overexpressing N-FLAG B3GNT2, then mass spectrometry

TOR1AIP2 (human), sequence (Q8NFQ8 2-470 limits assumed): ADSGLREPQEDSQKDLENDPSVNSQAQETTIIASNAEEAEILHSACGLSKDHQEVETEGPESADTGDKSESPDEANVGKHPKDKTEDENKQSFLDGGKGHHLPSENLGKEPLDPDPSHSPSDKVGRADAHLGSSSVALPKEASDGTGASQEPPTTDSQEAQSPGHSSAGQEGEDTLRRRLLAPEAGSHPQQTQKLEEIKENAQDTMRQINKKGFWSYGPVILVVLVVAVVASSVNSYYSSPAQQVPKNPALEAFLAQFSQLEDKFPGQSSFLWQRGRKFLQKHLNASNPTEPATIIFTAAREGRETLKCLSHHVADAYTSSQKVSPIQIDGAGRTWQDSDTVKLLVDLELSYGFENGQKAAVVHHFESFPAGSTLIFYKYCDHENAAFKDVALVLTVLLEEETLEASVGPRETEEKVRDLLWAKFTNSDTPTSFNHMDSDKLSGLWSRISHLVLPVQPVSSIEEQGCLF
SDF4 (human), sequence (Q9BRK5 37-362 limits assumed): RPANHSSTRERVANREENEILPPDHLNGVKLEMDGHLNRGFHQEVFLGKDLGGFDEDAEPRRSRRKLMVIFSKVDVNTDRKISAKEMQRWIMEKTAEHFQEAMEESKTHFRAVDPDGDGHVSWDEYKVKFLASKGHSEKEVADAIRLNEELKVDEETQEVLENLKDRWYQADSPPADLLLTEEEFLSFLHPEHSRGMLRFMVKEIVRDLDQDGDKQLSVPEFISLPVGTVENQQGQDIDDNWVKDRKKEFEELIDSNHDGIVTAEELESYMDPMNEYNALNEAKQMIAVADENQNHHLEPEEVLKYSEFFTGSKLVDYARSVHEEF
GAPDH (human), sequence (P04406 2-335 limits assumed): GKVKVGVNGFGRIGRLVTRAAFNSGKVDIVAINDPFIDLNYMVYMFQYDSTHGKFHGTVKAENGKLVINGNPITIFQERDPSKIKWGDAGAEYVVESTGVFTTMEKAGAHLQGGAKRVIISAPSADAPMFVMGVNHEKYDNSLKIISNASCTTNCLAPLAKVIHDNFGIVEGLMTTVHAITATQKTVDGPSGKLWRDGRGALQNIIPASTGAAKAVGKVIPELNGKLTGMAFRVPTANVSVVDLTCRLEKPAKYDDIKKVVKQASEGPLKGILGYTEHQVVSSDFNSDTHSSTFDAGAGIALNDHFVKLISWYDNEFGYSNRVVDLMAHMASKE
CD70 (human), sequence (P32970 whole entry): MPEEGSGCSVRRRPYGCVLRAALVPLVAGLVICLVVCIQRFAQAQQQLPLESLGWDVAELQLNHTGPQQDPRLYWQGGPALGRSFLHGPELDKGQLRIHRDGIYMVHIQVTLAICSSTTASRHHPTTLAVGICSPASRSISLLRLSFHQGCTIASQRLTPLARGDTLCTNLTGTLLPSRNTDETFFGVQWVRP
GALNT2 (human), sequence (Q10471 whole entry): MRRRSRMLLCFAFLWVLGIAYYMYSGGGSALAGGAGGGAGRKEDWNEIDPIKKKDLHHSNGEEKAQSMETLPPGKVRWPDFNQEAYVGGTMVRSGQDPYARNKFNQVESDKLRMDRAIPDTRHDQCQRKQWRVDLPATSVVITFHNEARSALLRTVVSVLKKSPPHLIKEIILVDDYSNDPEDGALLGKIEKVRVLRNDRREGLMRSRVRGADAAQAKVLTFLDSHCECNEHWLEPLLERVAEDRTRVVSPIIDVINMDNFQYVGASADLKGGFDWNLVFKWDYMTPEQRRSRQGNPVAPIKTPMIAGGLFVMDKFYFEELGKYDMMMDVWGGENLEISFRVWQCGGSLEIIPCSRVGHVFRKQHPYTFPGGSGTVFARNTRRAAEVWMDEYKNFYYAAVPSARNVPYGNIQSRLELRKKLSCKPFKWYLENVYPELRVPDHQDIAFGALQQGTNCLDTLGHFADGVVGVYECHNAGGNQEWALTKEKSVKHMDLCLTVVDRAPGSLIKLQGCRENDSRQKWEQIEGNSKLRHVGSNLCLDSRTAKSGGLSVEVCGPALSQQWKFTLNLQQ
EIF4A1 (human), sequence (P60842 2-406 limits assumed): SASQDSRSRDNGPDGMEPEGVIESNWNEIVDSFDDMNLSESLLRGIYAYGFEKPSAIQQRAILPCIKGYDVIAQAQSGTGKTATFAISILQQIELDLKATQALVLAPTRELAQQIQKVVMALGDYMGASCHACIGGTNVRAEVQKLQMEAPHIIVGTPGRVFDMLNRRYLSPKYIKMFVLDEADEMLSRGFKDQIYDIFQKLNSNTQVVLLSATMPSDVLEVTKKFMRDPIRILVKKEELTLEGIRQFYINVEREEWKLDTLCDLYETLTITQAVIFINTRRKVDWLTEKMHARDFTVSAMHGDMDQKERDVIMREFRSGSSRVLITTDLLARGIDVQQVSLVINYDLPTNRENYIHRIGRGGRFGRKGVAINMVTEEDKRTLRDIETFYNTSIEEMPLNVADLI
ARF4 (human), sequence (P18085 2-180 limits assumed): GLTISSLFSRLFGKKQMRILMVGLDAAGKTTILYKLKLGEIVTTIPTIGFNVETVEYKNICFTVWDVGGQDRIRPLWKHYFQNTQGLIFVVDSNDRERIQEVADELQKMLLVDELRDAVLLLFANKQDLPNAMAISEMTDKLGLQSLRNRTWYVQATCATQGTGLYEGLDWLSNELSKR
MAGT1 (human), sequence (Q9H0U3 30-335 limits assumed): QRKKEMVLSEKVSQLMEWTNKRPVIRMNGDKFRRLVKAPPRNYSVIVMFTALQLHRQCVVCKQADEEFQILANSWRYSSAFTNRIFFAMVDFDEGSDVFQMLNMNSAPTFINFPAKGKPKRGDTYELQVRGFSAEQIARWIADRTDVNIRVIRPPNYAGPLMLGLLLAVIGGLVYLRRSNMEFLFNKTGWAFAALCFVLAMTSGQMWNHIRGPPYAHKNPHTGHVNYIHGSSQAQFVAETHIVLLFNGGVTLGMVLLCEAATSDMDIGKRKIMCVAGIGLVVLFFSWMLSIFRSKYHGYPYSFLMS
DNAJB11 (human), sequence (Q9UBS4 23-358 limits assumed): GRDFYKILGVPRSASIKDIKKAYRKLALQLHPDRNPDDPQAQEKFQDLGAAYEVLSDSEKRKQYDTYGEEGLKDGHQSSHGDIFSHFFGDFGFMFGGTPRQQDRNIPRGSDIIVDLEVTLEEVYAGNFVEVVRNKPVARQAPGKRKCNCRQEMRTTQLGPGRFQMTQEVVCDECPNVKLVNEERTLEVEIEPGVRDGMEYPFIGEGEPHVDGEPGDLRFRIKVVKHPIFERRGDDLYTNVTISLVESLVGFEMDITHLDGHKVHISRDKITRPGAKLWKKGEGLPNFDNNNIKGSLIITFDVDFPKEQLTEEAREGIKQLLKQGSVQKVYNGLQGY
HNRNPU, sequence (Q00839 2-825 limits assumed): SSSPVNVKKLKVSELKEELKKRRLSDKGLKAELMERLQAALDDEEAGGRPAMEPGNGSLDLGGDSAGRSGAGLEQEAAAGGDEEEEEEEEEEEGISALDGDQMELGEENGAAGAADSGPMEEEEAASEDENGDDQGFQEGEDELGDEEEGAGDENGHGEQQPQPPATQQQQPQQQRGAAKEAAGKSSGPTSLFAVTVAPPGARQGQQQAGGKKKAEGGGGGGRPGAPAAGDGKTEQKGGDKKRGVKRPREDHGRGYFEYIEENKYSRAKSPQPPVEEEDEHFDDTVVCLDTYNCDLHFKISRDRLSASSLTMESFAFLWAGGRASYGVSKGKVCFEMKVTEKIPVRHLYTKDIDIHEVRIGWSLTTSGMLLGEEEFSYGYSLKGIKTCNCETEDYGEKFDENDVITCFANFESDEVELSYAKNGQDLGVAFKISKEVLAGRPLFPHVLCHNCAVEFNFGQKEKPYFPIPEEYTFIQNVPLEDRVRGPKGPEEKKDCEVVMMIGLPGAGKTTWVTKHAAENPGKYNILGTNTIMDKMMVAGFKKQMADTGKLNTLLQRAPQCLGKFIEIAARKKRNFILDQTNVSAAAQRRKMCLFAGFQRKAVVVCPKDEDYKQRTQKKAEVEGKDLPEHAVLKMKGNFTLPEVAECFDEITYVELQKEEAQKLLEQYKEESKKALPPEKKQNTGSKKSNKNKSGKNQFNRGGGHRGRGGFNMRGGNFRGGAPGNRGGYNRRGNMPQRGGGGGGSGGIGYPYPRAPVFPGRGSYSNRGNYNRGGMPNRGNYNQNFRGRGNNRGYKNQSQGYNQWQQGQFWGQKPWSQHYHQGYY
SLC25A5 (human), sequence (P05141 2-298 limits assumed): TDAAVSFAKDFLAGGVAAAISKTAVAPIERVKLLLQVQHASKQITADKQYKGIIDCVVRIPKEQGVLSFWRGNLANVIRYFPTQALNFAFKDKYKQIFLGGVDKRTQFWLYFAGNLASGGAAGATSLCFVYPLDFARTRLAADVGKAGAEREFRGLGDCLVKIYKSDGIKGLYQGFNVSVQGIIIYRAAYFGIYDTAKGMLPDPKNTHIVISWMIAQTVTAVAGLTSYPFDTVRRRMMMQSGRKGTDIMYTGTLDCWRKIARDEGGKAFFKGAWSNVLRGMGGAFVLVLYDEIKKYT
CCT7 (human), sequence (Q99832 45-543 limits assumed): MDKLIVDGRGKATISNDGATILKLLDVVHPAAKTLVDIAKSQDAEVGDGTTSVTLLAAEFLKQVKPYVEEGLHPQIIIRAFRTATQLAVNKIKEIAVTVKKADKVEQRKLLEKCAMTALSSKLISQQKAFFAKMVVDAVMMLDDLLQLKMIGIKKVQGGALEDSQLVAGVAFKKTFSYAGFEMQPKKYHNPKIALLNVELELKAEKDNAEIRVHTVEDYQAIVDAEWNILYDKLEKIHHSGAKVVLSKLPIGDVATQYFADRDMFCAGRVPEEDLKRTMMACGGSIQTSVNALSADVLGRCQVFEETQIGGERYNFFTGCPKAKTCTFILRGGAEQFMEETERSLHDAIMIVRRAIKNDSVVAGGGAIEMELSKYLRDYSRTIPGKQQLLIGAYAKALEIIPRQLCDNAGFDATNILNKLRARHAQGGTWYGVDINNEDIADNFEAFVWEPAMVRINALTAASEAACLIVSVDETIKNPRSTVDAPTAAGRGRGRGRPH
SPRR1A (human), sequence (P35321 whole entry): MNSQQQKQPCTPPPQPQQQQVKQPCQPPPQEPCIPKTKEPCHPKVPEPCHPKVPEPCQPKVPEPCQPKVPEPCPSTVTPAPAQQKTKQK

Which co-IP mass spectrometry count (RPS4X (human)) does the source give for “IgG control (Millipore Sigma 12-371) (antibody)” here?
Its co-IP mass spectrometry count is 7.

And the co-IP mass spectrometry count (GANAB (human))?
Its co-IP mass spectrometry count is 0.

What about the co-IP mass spectrometry count (MAGT1 (human)) of the same substance?
The co-IP mass spectrometry count was 0.

And the co-IP mass spectrometry count (ARF4 (human))?
Its co-IP mass spectrometry count is 0.

What about the co-IP mass spectrometry count (SLC25A5 (human)) of the same substance?
Its co-IP mass spectrometry count is 3.

What about the co-IP mass spectrometry count (IPO13 (human)) of the same substance?
The co-IP mass spectrometry count was 0.

What about the co-IP mass spectrometry count (NPM1 (human)) of the same substance?
The co-IP mass spectrometry count was 0.

What about the co-IP mass spectrometry count (SDF4 (human)) of the same substance?
The co-IP mass spectrometry count was 0.

And the co-IP mass spectrometry count (PJA2 (human))?
The co-IP mass spectrometry count was 0.

What about the co-IP mass spectrometry count (TOR1AIP2 (human)) of the same substance?
Its co-IP mass spectrometry count is 0.

And the co-IP mass spectrometry count (HADHA (human))?
Its co-IP mass spectrometry count is 0.

And the co-IP mass spectrometry count (HSPD1 (human))?
Its co-IP mass spectrometry count is 2.

And the co-IP mass spectrometry count (RPL32 (human))?
Its co-IP mass spectrometry count is 0.

And the co-IP mass spectrometry count (ZC3HAV1 (human))?
Its co-IP mass spectrometry count is 0.

What about the co-IP mass spectrometry count (CD70 (human)) of the same substance?
Its co-IP mass spectrometry count is 0.

And the co-IP mass spectrometry count (SLC27A4 (human))?
The co-IP mass spectrometry count was 0.

And the co-IP mass spectrometry count (MYO1C (human))?
The co-IP mass spectrometry count was 0.

And the co-IP mass spectrometry count (EIF4A1 (human))?
Its co-IP mass spectrometry count is 0.

What about the co-IP mass spectrometry count (RRP12 (human)) of the same substance?
The co-IP mass spectrometry count was 0.

What about the co-IP mass spectrometry count (ARHGEF2 (human)) of the same substance?
Its co-IP mass spectrometry count is 0.

And the co-IP mass spectrometry count (GALNT2 (human))?
Its co-IP mass spectrometry count is 0.

And the co-IP mass spectrometry count (SPRR1A (human))?
The co-IP mass spectrometry count was 0.

What about the co-IP mass spectrometry count (CCT7 (human)) of the same substance?
Its co-IP mass spectrometry count is 0.

And the co-IP mass spectrometry count (RPL9 (human))?
Its co-IP mass spectrometry count is 0.

And the co-IP mass spectrometry count (MARS (human))?
Its co-IP mass spectrometry count is 0.

What about the co-IP mass spectrometry count (STAU2 (human)) of the same substance?
The co-IP mass spectrometry count was 0.

What about the co-IP mass spectrometry count (GAPDH (human)) of the same substance?
The co-IP mass spectrometry count was 6.

What about the co-IP mass spectrometry count (DNAJB11 (human)) of the same substance?
The co-IP mass spectrometry count was 0.

And the co-IP mass spectrometry count (MSN (human))?
Its co-IP mass spectrometry count is 0.

What about the co-IP mass spectrometry count (RPL26 (human)) of the same substance?
Its co-IP mass spectrometry count is 4.

How did the co-IP mass spectrometry count (ITGB3) turn out when “C-terminal FLAG tagged B3GNT2 (from UniProt Q9NY97 1-397) (enzyme)” was run?
Its co-IP mass spectrometry count is 3.

What about the co-IP mass spectrometry count (RPS19) of the same substance?
The co-IP mass spectrometry count was 10.

And the co-IP mass spectrometry count (MTCH2)?
The co-IP mass spectrometry count was 2.

And the co-IP mass spectrometry count (PSMA7)?
Its co-IP mass spectrometry count is 2.

And the co-IP mass spectrometry count (NCCRP1)?
Its co-IP mass spectrometry count is 4.

What about the co-IP mass spectrometry count (HSPB1) of the same substance?
The co-IP mass spectrometry count was 4.

What about the co-IP mass spectrometry count (HNRNPU) of the same substance?
The co-IP mass spectrometry count was 12.

For “N-terminal FLAG tagged B3GNT2 (from UniProt Q9NY97 1-397) (enzyme)”, which co-IP mass spectrometry count (N-term FLAG) (CASC3 (human)) is on record?
The co-IP mass spectrometry count (N-term FLAG) was 3.
